# According to US20160024487:
# T1: Lys(Dnp)-ATNATLQPRIVGG-Lys(Abz)
# T1 chain: KATNATLQPRIVGGK
# T2: Lys(Dnp)-ATNATIKPRIVGG-Lys(Abz)
# T2 chain: KATNATIKPRIVGGK
# T3: Lys(Dnp)-ATNATPYPRIVGG-Lys(Abz)
# T3 chain: KATNATPYPRIVGGK
# T4: Lys(Dnp)-ATNATLWPRIVGG-Lys(Abz)
# T4 chain: KATNATLWPRIVGGK
# T5: Lys(Dnp)-ATNATATPRIVGG-Lys(Abz)
# T5 chain: KATNATATPRIVGGK
# T6: Lys(Dnp)-ATNATMIPRIVGG-Lys(Abz)
# T6 chain: KATNATMIPRIVGGK
# T7: Lys(Dnp)-ATNATIRPRIVGG-Lys(Abz)
# T7 chain: KATNATIRPRIVGGK
# T8: Lys(Dnp)-ATNATHIPRIVGG-Lys(Abz)
# T8 chain: KATNATHIPRIVGGK
# T9: Lys(Dnp)-ATNATYPPRIVGG-Lys(Abz)
# T9 chain: KATNATYPPRIVGGK
# T10: Lys(Dnp)-ATNATFAPRIVGG-Lys(Abz)
# T10 chain: KATNATFAPRIVGGK
# T11: Lys(Dnp)-ATNATQFPRIVGG-Lys(Abz)
# T11 chain: KATNATQFPRIVGGK
# T12: Lys(Dnp)-ATNATHLPRIVGG-Lys(Abz)
# T12 chain: KATNATHLPRIVGGK
# T13: Lys(Dnp)-ATNATFNPRIVGG-Lys(Abz)
# T13 chain: KATNATFNPRIVGGK
# T14: Lys(Dnp)-ATNATTYPRIVGG-Lys(Abz)
# T14 chain: KATNATTYPRIVGGK
# T15: Lys(Dnp)-ATNATPDPRIVGG-Lys(Abz)
# T15 chain: KATNATPDPRIVGGK
# T16: Lys(Dnp)-ATNATRIPRIVGG-Lys(Abz)
# T16 chain: KATNATRIPRIVGGK
# T17: Lys(Dnp)-ATNATIDPRIVGG-Lys(Abz)
# T17 chain: KATNATIDPRIVGGK
# T18: Lys(Dnp)-ATNATSKPRIVGG-Lys(Abz)
# T18 chain: KATNATSKPRIVGGK
# T19: Lys(Dnp)-ATNATADPRIVGG-Lys(Abz)
# T19 chain: KATNATADPRIVGGK
# T20: Lys(Dnp)-ATNATHMPRIVGG-Lys(Abz)
# T20 chain: KATNATHMPRIVGGK
# T21: Lys(Dnp)-ATNATSNPRIVGG-Lys(Abz)
# T21 chain: KATNATSNPRIVGGK
# T22: Lys(Dnp)-ATNATWEPRIVGG-Lys(Abz)
# T22 chain: KATNATWEPRIVGGK
# T23: Lys(Dnp)-ATNATKVPRIVGG-Lys(Abz)
# T23 chain: KATNATKVPRIVGGK
# T24: Lys(Dnp)-ATNATWVPRIVGG-Lys(Abz)
# T24 chain: KATNATWVPRIVGGK
# T25: Lys(Dnp)-ATNATDVPRIVGG-Lys(Abz)
# T25 chain: KATNATDVPRIVGGK
# T26: Lys(Dnp)-ATNATNWPRIVGG-Lys(Abz)
# T26 chain: KATNATNWPRIVGGK
# T27: Lys(Dnp)-ATNATINPRIVGG-Lys(Abz)
# T27 chain: KATNATINPRIVGGK
# T28: Lys(Dnp)-ATNATFIPRIVGG-Lys(Abz)
# T28 chain: KATNATFIPRIVGGK
# T29: Lys(Dnp)-ATNATKRPRIVGG-Lys(Abz)
# T29 chain: KATNATKRPRIVGGK
# T30: Lys(Dnp)-ATNATRNPRIVGG-Lys(Abz)
# T30 chain: KATNATRNPRIVGGK
# T31: Lys(Dnp)-ATNATGEPRIVGG-Lys(Abz)
# T31 chain: KATNATGEPRIVGGK
# T32: Lys(Dnp)-ATNATTKPRIVGG-Lys(Abz)
# T32 chain: KATNATTKPRIVGGK
# T33: Lys(Dnp)-ATNATRAPRIVGG-Lys(Abz)
# T33 chain: KATNATRAPRIVGGK
# T34: Lys(Dnp)-ATNATAWPRIVGG-Lys(Abz)
# T34 chain: KATNATAWPRIVGGK
# T35: Lys(Dnp)-ATNATHEPRIVGG-Lys(Abz)
# T35 chain: KATNATHEPRIVGGK
# T36: Lys(Dnp)-ATNATMDPRIVGG-Lys(Abz)
# T36 chain: KATNATMDPRIVGGK
# T37: Lys(Dnp)-ATNATWNPRIVGG-Lys(Abz)
# T37 chain: KATNATWNPRIVGGK
# T38: Lys(Dnp)-ATNATKGPRIVGG-Lys(Abz)
# T38 chain: KATNATKGPRIVGGK
# T39: Lys(Dnp)-ATNATKTPRIVGG-Lys(Abz)
# T39 chain: KATNATKTPRIVGGK
# T40: Lys(Dnp)-ATNATVGPRIVGG-Lys(Abz)
# T40 chain: KATNATVGPRIVGGK
# T41: Lys(Dnp)-ATNATEVPRIVGG-Lys(Abz)
# T41 chain: KATNATEVPRIVGGK
# B1: Human plasma purified Factor Xa (protein)
# chain 1: ANSFLEEMKKGHLERECMEETCSYEEAREVFEDSDKTNEFWNKYKDGDQCETSPCQNQGKCKDGLGEYTCTCLEGFEGKNCELFTRKLCSLDNGDCDQFCHEEQNSVVCSCARGYTLADNGKACIPTGPYPCGKQTLER
# chain 2: IVGGQECKDGECPWQALLINEENEGFCGGTILSEFYILTAAHCLYQAKRFKVRVGDRNTEQEEGGEAVHEVEVVIKHNRFTKETYDFDIAVLRLKTPITFRMNVAPACLPERDWAESTLMTQKTGIVSGFGRTHEKGRQSTRLKMLEVPYVDRNSCKLSSSFIITQNMFCAGYDTKQEDACQGDSGGPHVTRFKDTYFVTGIVSWGEGCARKGKYGIYTKVTAFLKWIDRSMKTRGLPKAKSHAPEVITSSPLK
# B2: Human plasma purified Factor Xa (Molecular Innovations, Inc) (protein)
# chain 1: B1 chain 1
# chain 2: B1 chain 2
# Columns and labels:
# [1] = molecular target: T1, Lys(Dnp)-ATNATLQPRIVGG-Lys(Abz)
# [2] = molecular target: T2, Lys(Dnp)-ATNATIKPRIVGG-Lys(Abz)
# [3] = molecular target: T3, Lys(Dnp)-ATNATPYPRIVGG-Lys(Abz)
# [4] = molecular target: T4, Lys(Dnp)-ATNATLWPRIVGG-Lys(Abz)
# [5] = molecular target: T5, Lys(Dnp)-ATNATATPRIVGG-Lys(Abz)
# [6] = molecular target: T6, Lys(Dnp)-ATNATMIPRIVGG-Lys(Abz)
# [7] = molecular target: T7, Lys(Dnp)-ATNATIRPRIVGG-Lys(Abz)
# [8] = molecular target: T8, Lys(Dnp)-ATNATHIPRIVGG-Lys(Abz)
# [9] = molecular target: T9, Lys(Dnp)-ATNATYPPRIVGG-Lys(Abz)
# [10] = molecular target: T10, Lys(Dnp)-ATNATFAPRIVGG-Lys(Abz)
# [11] = molecular target: T11, Lys(Dnp)-ATNATQFPRIVGG-Lys(Abz)
# [12] = molecular target: T12, Lys(Dnp)-ATNATHLPRIVGG-Lys(Abz)
# [13] = molecular target: T13, Lys(Dnp)-ATNATFNPRIVGG-Lys(Abz)
# [14] = molecular target: T14, Lys(Dnp)-ATNATTYPRIVGG-Lys(Abz)
# [15] = molecular target: T15, Lys(Dnp)-ATNATPDPRIVGG-Lys(Abz)
# [16] = molecular target: T16, Lys(Dnp)-ATNATRIPRIVGG-Lys(Abz)
# [17] = molecular target: T17, Lys(Dnp)-ATNATIDPRIVGG-Lys(Abz)
# [18] = molecular target: T18, Lys(Dnp)-ATNATSKPRIVGG-Lys(Abz)
# [19] = molecular target: T19, Lys(Dnp)-ATNATADPRIVGG-Lys(Abz)
# [20] = molecular target: T20, Lys(Dnp)-ATNATHMPRIVGG-Lys(Abz)
# [21] = molecular target: T21, Lys(Dnp)-ATNATSNPRIVGG-Lys(Abz)
# [22] = molecular target: T22, Lys(Dnp)-ATNATWEPRIVGG-Lys(Abz)
# [23] = molecular target: T23, Lys(Dnp)-ATNATKVPRIVGG-Lys(Abz)
# [24] = molecular target: T24, Lys(Dnp)-ATNATWVPRIVGG-Lys(Abz)
# [25] = molecular target: T25, Lys(Dnp)-ATNATDVPRIVGG-Lys(Abz)
# [26] = molecular target: T26, Lys(Dnp)-ATNATNWPRIVGG-Lys(Abz)
# [27] = molecular target: T27, Lys(Dnp)-ATNATINPRIVGG-Lys(Abz)
# [28] = molecular target: T28, Lys(Dnp)-ATNATFIPRIVGG-Lys(Abz)
# [29] = molecular target: T29, Lys(Dnp)-ATNATKRPRIVGG-Lys(Abz)
# [30] = molecular target: T30, Lys(Dnp)-ATNATRNPRIVGG-Lys(Abz)
# [31] = molecular target: T31, Lys(Dnp)-ATNATGEPRIVGG-Lys(Abz)
# [32] = molecular target: T32, Lys(Dnp)-ATNATTKPRIVGG-Lys(Abz)
# [33] = molecular target: T33, Lys(Dnp)-ATNATRAPRIVGG-Lys(Abz)
# [34] = molecular target: T34, Lys(Dnp)-ATNATAWPRIVGG-Lys(Abz)
# [35] = molecular target: T35, Lys(Dnp)-ATNATHEPRIVGG-Lys(Abz)
# [36] = molecular target: T36, Lys(Dnp)-ATNATMDPRIVGG-Lys(Abz)
# [37] = molecular target: T37, Lys(Dnp)-ATNATWNPRIVGG-Lys(Abz)
# [38] = molecular target: T38, Lys(Dnp)-ATNATKGPRIVGG-Lys(Abz)
# [39] = molecular target: T39, Lys(Dnp)-ATNATKTPRIVGG-Lys(Abz)
# [40] = molecular target: T40, Lys(Dnp)-ATNATVGPRIVGG-Lys(Abz)
# [41] = molecular target: T41, Lys(Dnp)-ATNATEVPRIVGG-Lys(Abz)
protein,measurement,setting,value
B1,FXa kcat/KM,[1],1200 M⁻¹ s⁻¹
same,FXa kcat/KM,[2],120 M⁻¹ s⁻¹
same,FXa kcat/KM,[3],83 M⁻¹ s⁻¹
same,FXa kcat/KM,[4],1000 M⁻¹ s⁻¹
same,FXa kcat/KM,[5],330 M⁻¹ s⁻¹
same,FXa kcat/KM,[6],220 M⁻¹ s⁻¹
same,FXa kcat/KM,[7],760 M⁻¹ s⁻¹
B2,FXa kcat/KM,[8],78 M⁻¹ s⁻¹
same,FXa kcat/KM,[9],20 M⁻¹ s⁻¹
same,FXa kcat/KM,[10],130 M⁻¹ s⁻¹
same,FXa kcat/KM,[11],150 M⁻¹ s⁻¹
same,FXa kcat/KM,[12],140 M⁻¹ s⁻¹
same,FXa kcat/KM,[13],200 M⁻¹ s⁻¹
same,FXa kcat/KM,[14],23 M⁻¹ s⁻¹
same,FXa kcat/KM,[15],790 M⁻¹ s⁻¹
same,FXa kcat/KM,[16],700 M⁻¹ s⁻¹
same,FXa kcat/KM,[17],1300 M⁻¹ s⁻¹
same,FXa kcat/KM,[18],13 M⁻¹ s⁻¹
same,FXa kcat/KM,[19],56 M⁻¹ s⁻¹
same,FXa kcat/KM,[20],270 M⁻¹ s⁻¹
same,FXa kcat/KM,[21],24 M⁻¹ s⁻¹
same,FXa kcat/KM,[22],24 M⁻¹ s⁻¹
same,FXa kcat/KM,[23],50 M⁻¹ s⁻¹
same,FXa kcat/KM,[24],86 M⁻¹ s⁻¹
same,FXa kcat/KM,[25],15 M⁻¹ s⁻¹
same,FXa kcat/KM,[26],86 M⁻¹ s⁻¹
same,FXa kcat/KM,[27],870 M⁻¹ s⁻¹
same,FXa kcat/KM,[28],150 M⁻¹ s⁻¹
same,FXa kcat/KM,[29],91 M⁻¹ s⁻¹
same,FXa kcat/KM,[30],1700 M⁻¹ s⁻¹
same,FXa kcat/KM,[31],87 M⁻¹ s⁻¹
same,FXa kcat/KM,[32],14 M⁻¹ s⁻¹
same,FXa kcat/KM,[33],2000 M⁻¹ s⁻¹
same,FXa kcat/KM,[34],460 M⁻¹ s⁻¹
same,FXa kcat/KM,[35],96 M⁻¹ s⁻¹
same,FXa kcat/KM,[36],500 M⁻¹ s⁻¹
same,FXa kcat/KM,[37],22 M⁻¹ s⁻¹
same,FXa kcat/KM,[38],33 M⁻¹ s⁻¹
same,FXa kcat/KM,[39],72 M⁻¹ s⁻¹
same,FXa kcat/KM,[40],49 M⁻¹ s⁻¹
same,FXa kcat/KM,[41],24 M⁻¹ s⁻¹
